According to patent US20240034804A1 (BIORAY PHARMACEUTICAL, published 2024):
One block for each molecule: values may come before it.

Tests used:
[1] = target: SIRPα protein (Acrobiosystems, Cat. No. SIA-H5225), V1 genotype (human) (UniProt P78324); assay: BLI (Octet Red96), SIRPα captured on H1S1K biosensor, antibody as analyte, 1:1 fit
[2] = target: T1, SIRPα protein (Acrobiosystems, Cat. No. SIA-H5225), V1 genotype (human, UniProt P78324 31-370); assay: ELISA, coated SIRPα (SIA-H5225)
T1 construct: Bought protein; also called recombinant SIRPα protein; antigen SIRPα
Experimental: The plates were then blocked with 1% BSA-PBS blocking solution for 1 h at 37° C. Plates were washed with PBST. The humanized antibodies were diluted to different concentrations (3-fold serially diluted from 66.7 nM, 11 concentration gradients in total) and added to the plates. After a 1 h incubation at 37° C., plates were washed and HRP-labeled goat anti-human IgG (manufacturer: Abcam, Cat. No. Ab98595, 1:10000 dilution) was added. After a 0.5 h incubation at 37° C., plates were washed and TMB solution was added. After a 5 min incubation at room temperature in the dark, the reaction was terminated by adding 2 N H₂SO₄. Absorbance was read at 450 nm on a microplate reader.

[3] = target: T2, biotin-labeled SIRPα (Acrobiosystems, Cat. No. CDA-H82F2), V1 genotype (human, UniProt P78324 31-370, biotin-labeled (site not stated)); assay: competition ELISA, blocking of biotin-labeled SIRPα binding to coated CD47-Fc (competitor CD47-Fc)
T2 construct: Bought protein; also called SIRPα (V1)
Experimental: (§1) 96-well plates were coated with CD47-Fc (manufacturer: Acrobiosystems, Cat. No. CD7-H5256) at 4° C. overnight. Plates were washed and blocked with 1% BSA-PBST blocking solution. […] After a 1 h incubation at 37° C., plates were washed and HRP-labeled streptavidin (manufacturer: Abcam, Cat. No.: ab7403) was added. After a 0.5 h incubation at 37° C., plates were washed and TMB solution was added. After a 0.5 h incubation at room temperature in the dark, the reaction was terminated by adding 2 N H₂SO₄. Absorbance was read at 450 nm on a microplate reader. IgG (manufacturer: GenScript) was used as the control.

[4] = target: T2, biotin-labeled SIRPα (Acrobiosystems, …); assay: competition ELISA (FIG. 4B), blocking of biotin-labeled SIRPα (V1) binding to coated CD47-Fc
[5] = target: biotin-labeled SIRPα (V8) (Acrobiosystems, Cat. No. SI8-H82W6) (human, UniProt P78324 31-370, biotin-labeled (site not stated)); assay: competition ELISA (FIG. 4D), blocking of biotin-labeled SIRPα (V8) binding to coated CD47-Fc
Experimental: as §1
(§2) The antibodies were 3-fold serially diluted from 200 nM and a total of nine concentration gradients were prepared.

[6] = target: membrane SIRPα on THP-1 cells (human myeloid leukemia monocytes endogenously expressing SIRPα) (human) (UniProt P78324); assay: cell-based or functional assay
[7] = target: biotin-labeled SIRPα (V2) (Acrobiosystems, Cat. No. SI2-H82W8) (human, UniProt P78324 31-370, biotin-labeled (site not stated)); assay: competition ELISA (FIG. 4C), blocking of biotin-labeled SIRPα (V2) binding to coated CD47-Fc
Experimental: as §1, §2

[8] = target: T2, biotin-labeled SIRPα (Acrobiosystems, …); assay: competition ELISA (FIG. 4A), blocking of biotin-labeled SIRPα (V1) binding to coated CD47-Fc; FIG. 4A, run beside KWAR23
Experimental: as §1
(§3) The antibodies were 2-fold serially diluted from 83.4 nM and a total of nine concentration gradients were prepared.

[9] = target: T2, biotin-labeled SIRPα (Acrobiosystems, …); assay: competition ELISA (FIG. 4B), blocking of biotin-labeled SIRPα (V1) binding to coated CD47-Fc; FIG. 4B, run beside 18D5 and 1H9
Experimental: as §1, §3

[10] = target: T1, SIRPα protein (Acrobiosystems, Cat. No. …); assay: BLI (Octet Red96), SIRPα captured on H1S1K biosensor, antibody as analyte, 1:1 fit

B1: #4 antibody (humanized anti-SIRPα antibody) (antibody, V domains shown)
VH: EVQLVQSGAEVKKPGATVKISCRGSGFNIKDYYIQWVQQAPGKGLEWMGWIDPENGDTKYAPKFQGRVTITADTSTDTAYMELSSLRSEDTAVYYCYAKGPYWGQGTTLTVSS
VL: DIVMTQSPDSLAVSLGERATINCKSSQSLFYSSNQKNFLAWYQQKPGQPPKLLIYWASTRESGVPDRFTGSGSGTDFTLTISSVKAEDLAVYYCQQYYSYPPTFGGGTKLEIK
notes: Full antibody as tested
EC50 [2]: 1.83 nM
IC50 [3]: 6.03 nM

B2: 1H9 (antibody, V domains shown)
VH: QVQLQQPGAERVKPGASVKMSCKASGYTFTSYWITWVKQRPGQGLEWIGDIYPGSGSTNHIEKFKSKATLTVDTSSNTAYMQLSRLTSEDSAVYYCATGYGSSYGYFDYWGQGTTLTVSS
VL: DIQMTQSPASLSASVGETVTITCRASENIYSYLAWYQQKQGKSPQLLVYTAKTLAEGVPSRFSGSGSGTQFSLKINSLQPEDFGNYYCQHQYGPPFTFGSGTRLVIK
IC50 [4]: 4.2 nM

B3: #13 antibody (humanized anti-SIRPα antibody) (antibody, V domains shown)
VH: QVQLVQSGSELKKPGASVKVSCKASGYTFTDYSIHWVRQAPGQGLEWMGWINTETGEPTYADDFKGRFVFSLDTSVSTAYLQICSLKAEDTAVYYCSRGPLYRYDGYGLEYWGQGTLVTVSS
VL: DIVMTQSPDSLAVSLGERATINCKASQSVSNDVAWYQQKPGQPPKLLIYYASNRCTGVPDRFSGSGSGTDFTLTISSLQAEDVAVYYCHQDYISPYTFGGGTKLEIK
notes: Full antibody as tested
EC50 [2]: 0.952 nM
IC50 [3]: 1.5 nM

B4: #11 antibody (humanized anti-SIRPα antibody) (antibody, V domains shown)
VH: QVTLKESGPVLVKPTETLTLTCTVSGFSLSSHGVHWIRQPPGKALEWLAVIWSDGSTTYNSTLKSRLTISKDTSKSQVVLTMTNMDPVDTATYYCARHGNYHYNMDYWGQGTLVTVSS
VL: DIQLTQSPSFLSASVGDRVTITCRTSSRVNSGYLHWYQQKPGKAPKLLIYSTSTLASGVPSRFSGSGSGTEFTLTISSLQPEDFATYYCQQYSSYPWTFGGGTKLEIK
notes: Full antibody as tested
EC50 [2]: 0.464 nM
IC50 [3]: 0.209 nM

B7: 18D5 (antibody, V domains shown)
VH: QVQLQQPGAELVRPGSSVKLSCKASGYTFTSYWVHWVKQRPIQGLEWIGNIDPSDSDTHYNQKFKDKASLTVDKSSSTAYMQLSSLTFEDSAVYYCVRGGTGTMAWFAYWGQGTLVTVSA
VL: DVVMTQTPLSLPVSLGDQASISCRSSQSLVHSYGNTYLYWYLQKPGQSPKLLIYRVSNRFSGVPDRFSGSGSGTDFTLKISRVEAEDLGVYFCFQGTHVPYTFGSGTKLEIK
IC50 [4]: 4.1 nM

Next, values leading:

Kd [1]: 0.0509 nM
Molecule: KWAR23 (antibody)

IC50 [5]: 10.8 nM
Endocytosis rate (%) [6]: 34.7%
IC50 [7]: 6.4 nM
B5: KWAR23 (antibody, V domains shown)
VH: EVQLQQSGAELVKPGASVKLSCTASGFNIKDYYIHWVQQRTEQGLEWIGRIDPEDGETKYAPKFQDKATITADTSSNTAYLHLSSLTSEDTAVYYCARWGAYWGQGTLVTVSS
VL: QIVLTQSPAIMSASPGEKVTLTCSASSSVSSSYLYWYQQKPGSSPKLWIYSTSNLASGVPARFSGSGSGTSYSLTISSMEAEDAASYFCHQWSSYPRTFGAGTKLELK

IC50 [5]: 11.5 nM
IC50 [8]: 3.4 nM
IC50 [9]: 4.4 nM
EC50 [2]: 0.683 nM
Kd [10]: 0.0217 nM
IC50 [3]: 0.132 nM
IC50 [7]: 7.8 nM
B6: #14 antibody (humanized anti-SIRPα antibody) (antibody, human IgG1, kappa, N297A, V domains shown)
VH: QVQLQESGPGLVKPSQTLSLTCTVSGGSISSGYYWSWIRQHPGKGLEWIGYISYDGSRYNNPSLKNRVTISVDTSKNQFSLKLSSVTAADTAVYYCAREEYANYFAYWGQGTTVTVSS
VL: DIVMTQSPDSLAVSLGERATINCKSSQSLFYSSNQKNFLAWYQQKPGQPPKLLIYWASTRESGVPDRFTGSGSGTDFTLTISSVKAEDLAVYYCQQYYSYPPTFGQGTKLEIKR
